Laboratory results from US20090197812.

Assays:
[1] = biological target: T1, Human I-κBα
T1 chain: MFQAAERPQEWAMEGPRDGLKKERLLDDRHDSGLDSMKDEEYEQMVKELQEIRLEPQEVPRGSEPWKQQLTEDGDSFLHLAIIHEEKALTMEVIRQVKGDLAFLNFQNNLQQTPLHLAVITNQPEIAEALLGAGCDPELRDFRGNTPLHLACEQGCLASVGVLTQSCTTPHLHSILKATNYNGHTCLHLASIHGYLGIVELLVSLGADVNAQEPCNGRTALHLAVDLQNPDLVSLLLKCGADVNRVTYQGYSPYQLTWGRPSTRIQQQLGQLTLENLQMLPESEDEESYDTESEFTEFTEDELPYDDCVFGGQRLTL

[2] = biological target: mutant I-κBα, the phosphorylation sites of which were modified

B1: transglutaminase (guinea pig liver, Sigma) (protein)
chain: AEDLILERCDLQLEVNGRDHRTADLCRERLVLRRGQPFWLTLHFEGRGYEAGVDTLTFNAVTGPDPSEEAGTMARFSLSSAVEGGTWSASAVDQQDSTVSLLLSTPADAPIGLYRLSLEASTGYQGSSFVLGHFILLYNPRCPADAVYMDSDQERQEYVLTQQGFIYQGSAKFINGIPWNFGQFEDGILDICLMLLDTNPKFLKNAGQDCSRRSRPVYVGRVVSAMVNCNDDQGVLQGRWDNNYSDGVSPMSWIGSVDILRRWKDYGCQRVKYGQCWVFAAVACTVLRCLGIPTRVVTNFNSAHDQNSNLLIEYFRNESGEIEGNKSEMIWNFHCWVESWMTRPDLEPGYEGWQALDPTPQEKSEGTYCCGPVPVRAIKEGHLNVKYDAPFVFAEVNADVVNWIRQKDGSLRKSINHLVVGLKISTKSVGRDEREDITHTYKYPEGSEEEREAFVRANHLNKLATKEEAQEETGVAMRIRVGQNMTMGSDFDIFAYITNGTAESHECQLLLCARIVSYNGVLGPVCSTNDLLNLTLDPFSENSIPLHILYEKYGDYLTESNLIKVRGLLIEPAANSYVLAERDIYLENPEIKIRVLGEPKQNRKLIAEVSLKNPLPVPLLGCIFTVEGAGLTKDQKSVEVPDPVEAGEQAKVRVDLLPTEVGLHKLVVNFECDKLKAVKGYRNVIIGPA
With B1 the “polymerization of I-κβα on 4-12% NuPAGE” value [1] was “both the intact I-κBα and the mutant I-κBα, the phosphorylation sites of which were modified, were polymerized to high-molecular weight polymers, by transglutaminase” and the “polymerization of I-κβα on 4-12% NuPAGE” value [2] was “both the intact I-κBα and the mutant I-κBα, the phosphorylation sites of which were modified, were polymerized to high-molecular weight polymers, by transglutaminase”.
